From US12723255B2, “Herbicide tolerance genes and methods of use thereof” (priority 2014, dated 2026)

Key:
F1 hybrid maize plants = test: efficacy field trial with segregating F1 hybrid plants; assay type: in vivo; conditions: CTP A; for % Injury from V4 2,4-D / % Injury from V8 2,4-D: 2,4-D amine 2× at VE-V2 (plus quizalofop-P 0.5×), V4, V8; for % Injury from V4 Quizalofop / % Injury from V8 Quizalofop: quizalofop-P 2× at VE-V2, V4, V8
Method in brief: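 Field plots of segregating F1 hybrids (LH244 transformants crossed with MON89034) received either quizalofop-P 0.16 lb ai/acre + 0.25% NIS at VE-V2, V4 and V8, or 2,4-D amine 2 lb ae/acre (+ quizalofop-P 0.04 lb ai/acre at VE-V2) + NIS at VE-V2, V4, V8. Crop injury visually rated 0–100, 10–14 days after application.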

[1] = kinetic analysis, non-endpoint assay at 23° C.; assay type: biochemical; conditions: standard error in parenthetical; for Vmax Quizalofop / Km: 23° C., purified His-tagged protein; for Km: read-out: Km Quizalofop; for Km 2,4-D / Vmax 2,4-D: NDB = activity not robust enough for kinetic characterization
Method in brief: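 Purified C-terminal 6-His-tagged recombinant enzymes expressed in bacteria; quizalofop-P or 2,4-D as substrate. Vmax reported as specific activity (umol herbicide product mg enzyme-1 min-1) and Km as mM herbicide substrate, with standard error.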

[2] = enzyme activity assay at 23° C. with purified enzyme; assay type: biochemical; conditions: wild-type set at 100%
Protocol: The enzyme activity of MON-HT protein variants with haloxyfop, fenoxaprop, fluazifop, and dichlorprop as substrates was determined using the enzyme activity assay conducted at 23° C. with purified enzyme. The activity was recorded as the maximum activity as a percentage of the wild-type enzyme's activity, which was set at 100%.

[3] = assay type: physicochemical; conditions: buffer; for T1/2, temperature where 50% of the protein was unfolded, Buffer: pH 7.5
Method in brief: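 Thermal shift assay: purified enzyme in 30 mM Tris pH7.5, 150 mM NaCl, with or without 50 uM Fe2+ and 1.0 mM aKG. Unfolding followed by SYPRO orange fluorescence from 10° C. to 95° C. in 0.5° C. steps; melting temperature (T1/2) taken from the curve.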

Row | Molecule | % Injury from V4 2,4-D (F1 hybrid maize plants) [%] | % Injury from V8 2,4-D (F1 hybrid maize plants) [%] | % Injury from V4 Quizalofop (F1 hybrid maize plants) [%] | % Injury from V8 Quizalofop (F1 hybrid maize plants) [%] | Vmax Quizalofop [1] | Km [1] [µM] | Km 2,4-D [1] | Vmax 2,4-D [1] | maximum activity as a percentage of the wild-type enzyme's activity, Dichlorprop [2] [%] | maximum activity as a percentage of the wild-type enzyme's activity, Fluazifop [2] [%] | T1/2, temperature where 50% of the protein was unfolded, Buffer plus Fe2+ and aKG [3] [°C] | T1/2, temperature where 50% of the protein was unfolded, Buffer [3] [°C] | maximum activity as a percentage of the wild-type enzyme's activity, Haloxyfop ([2]; purified enzyme) [%]
1 | MON-HT10: engineered oxygenase protein, amino acid sequence SEQ ID NO:43 (protein) MHAALTPLTNKYRFIDVQPLCGVLGAEITGVDLREPLDDSTWNEILDAFHTYQVIYFPGQAITNEQHIAFSRRFGPVDPVPLLKSIEGYPEVQMIRREANESGRILGDDWHTDSTFLDAPPAAVVMRAIEVPEYGGDTGFLSMYSAWDTLSDTMKATIEGLNVVHSATRVFGSLYQAQNWRFSNTSVKVMDVDAGDRETVHPLVVSHPVTGRRALYCNQVYCQRIEGMTDAESKCLLQFLYEHATKFDFTCRVRWKKDQVLVWDNLCTMHLAVPDYDGKFRYLTRTTVAGDKPSR | 28 | 38.33 | 0 | 0 | 0.78 (−0.05) umol herbicide product mg enzyme-1 min-1 | 130 | NDB | NDB | 29 | 48 | 44 | 44 | 
2 | MON-HT6: engineered oxygenase protein, amino acid sequence SEQ ID NO:31 (protein) MHAALSPLSQKYRFIDVQPLTGVLGAEITGVTLREPLDDNTWNEILDAFHTYQVIYFPGQAITNEQHIAFSRRFGPVDPVPLLKSIEGYPEVQMIRREANESGRVIGDDWHTDSTFLDAPPAAVVMYAREVPPYGGDTGFLSMYSAWDTLSDTMKATIEGLNVVHSATRVFGSLYQAQNRRFSNTSVKVMDVDAGDRETVHPLVVSHPVTGRRALYCNQVYCQRIEGMTDAESKPLLQFLYEHATRFDFTCRVRWKKDQVLVWDNLCTMHRAVPDYAGKFRYLTRTTVAGDKPSR | 27 | 12.7 | 8 | 1.7 | 0.39 (−0.03) umol herbicide product mg enzyme-1 min-1 | 100 | NDB | NDB | 37 | 47 | 44 | 44 | 75
